Laboratory results: patent US20210115127A1 (SURFACE ONCOLOGY, published 2021)
Blank lines part the entries; values can stand above or below the binder they belong to.

B1: recombinant human IL-27 (heterodimer of IL-27p28 and EBI3) (ligand)
chain 1: FPRPPGRPQLSLQELRREFTVSLHLARKLLSEVRGQAHRFAESHLPGVNLYLLPLGEQLPDVSLTFQAWRRLSDPERLCFISTTLQPFHALLGGLGTQGRWTNMERMQLWAMRLDLRDLQRHLRFQVLAAGFNLPEEEEEEEEEEEEERKGLLPGALGSALQGPAQVSWPQLLSTYRLLHSLELVLSRAVRELLLLSKAGHSVWPLGFPTLSPQP
chain 2: RKGPPAALTLPRVQCRASRYPIAVDCSWTLPPAPNSTSPVSFIATYRLGMAARGHSWPCLQQTPTSTSCTITDVQLFSMAPYVLNVTAVHPWGSSSSFVPFITEHIIKPDPPEGVRLSPLAERQLQVQWEPPGSWPFPEIFSLKYWIRYKRQGAARFHRVGPIEATSFILRAVRPRARYYVQVAAQDLTDYGELSDWSLPATATMSLGK
notes: Bought recombinant protein (R&D Systems 2526-IL) in the cell and ForteBio assays; also called rhIL-27
B2: human IL-27p28 subunit (ligand)
chain: FPRPPGRPQLSLQELRREFTVSLHLARKLLSEVRGQAHRFAESHLPGVNLYLLPLGEQLPDVSLTFQAWRRLSDPERLCFISTTLQPFHALLGGLGTQGRWTNMERMQLWAMRLDLRDLQRHLRFQVLAAGFNLPEEEEEEEEEEEEERKGLLPGALGSALQGPAQVSWPQLLSTYRLLHSLELVLSRAVRELLLLSKAGHSVWPLGFPTLSPQP

Key:
gp130 [1] = biological target: T1, gp130 (human, UniProt P40189 23-619, limits assumed); assay: SPR on gp130; trace (2), rhIL-27 alone, and trace (1), rhIL-27 + Anti-IL-27 Ab1, both rise to about 45 RU
T1 construct: also called IL6ST; Interleukin-6 Signal Transducer
T1 sequence: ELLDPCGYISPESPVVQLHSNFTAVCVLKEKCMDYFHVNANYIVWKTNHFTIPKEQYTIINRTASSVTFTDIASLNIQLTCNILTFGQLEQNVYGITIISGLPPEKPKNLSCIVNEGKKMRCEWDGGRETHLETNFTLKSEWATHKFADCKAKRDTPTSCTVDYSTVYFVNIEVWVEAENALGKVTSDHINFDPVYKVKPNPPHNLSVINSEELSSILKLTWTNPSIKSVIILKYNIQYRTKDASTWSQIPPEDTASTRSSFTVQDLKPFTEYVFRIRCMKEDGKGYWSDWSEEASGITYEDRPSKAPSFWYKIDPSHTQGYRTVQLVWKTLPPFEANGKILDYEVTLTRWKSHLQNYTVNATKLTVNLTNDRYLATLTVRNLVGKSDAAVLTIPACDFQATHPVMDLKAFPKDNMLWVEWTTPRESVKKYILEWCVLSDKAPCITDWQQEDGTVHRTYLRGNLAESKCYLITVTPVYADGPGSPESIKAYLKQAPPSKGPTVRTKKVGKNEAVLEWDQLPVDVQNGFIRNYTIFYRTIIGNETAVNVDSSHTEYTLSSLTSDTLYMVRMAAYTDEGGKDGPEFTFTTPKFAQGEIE

gp130 [2] = biological target: T1, gp130; assay: Drawn table Ligand / Analyte / Result, ligand gp130, analyte IL-27 heterodimer; method not named for this figure (SPR is used in the same example)
IL-27RA (WSX-1) [3] = biological target: T2, IL-27RA (WSX-1) (human, UniProt Q6UWB1 33-516, limits assumed); assay: SPR on WSX-1; trace (2), rhIL-27 alone, rises to about 210 RU; trace (1), rhIL-27 + Anti-IL-27 Ab1, stays at or below 0 RU
T2 construct: also called IL-27Rα; IL-27 receptor subunit alpha
T2 sequence: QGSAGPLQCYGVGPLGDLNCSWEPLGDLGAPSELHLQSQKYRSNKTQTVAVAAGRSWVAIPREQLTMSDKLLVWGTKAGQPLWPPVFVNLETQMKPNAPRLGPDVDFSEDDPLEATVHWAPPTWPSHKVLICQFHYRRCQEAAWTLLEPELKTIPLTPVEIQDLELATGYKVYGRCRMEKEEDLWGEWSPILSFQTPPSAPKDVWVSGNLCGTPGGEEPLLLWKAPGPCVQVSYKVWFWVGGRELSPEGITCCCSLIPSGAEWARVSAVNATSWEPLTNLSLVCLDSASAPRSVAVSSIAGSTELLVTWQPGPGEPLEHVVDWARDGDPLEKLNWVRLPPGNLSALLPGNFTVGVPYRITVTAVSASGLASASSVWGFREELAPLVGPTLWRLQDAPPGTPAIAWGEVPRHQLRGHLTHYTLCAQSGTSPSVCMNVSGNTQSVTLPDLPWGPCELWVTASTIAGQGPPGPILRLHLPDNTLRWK

gp130 [4] = biological target: T1, gp130; assay: Drawn table Ligand / Analyte / Result, ligand gp130, analyte p28 alone; method not named for this figure (SPR is used in the same example)
IL-27RA (WSX-1) [5] = biological target: T2, IL-27RA (WSX-1); assay: Drawn table Ligand / Analyte / Result, ligand WSX-1, analyte EBI3 alone; method not named for this figure (SPR is used in the same example)
human IL-27p28 subunit [6] = biological target: B2; assay: Drawn table Ligand / Analyte / Result, ligand p28 held by Anti-IL-27 Ab3 (anti-p28), analyte EBI3; method not named for this figure (SPR is used in the same example)
human IL-27p28 subunit [7] = biological target: B2; assay: binding affinity data of FIG. 17; method not stated
[8] = biological target: B1; assay: cell-based or functional assay
[9] = biological target: T3, recombinant cynomolgus monkey IL-27 (cynomolgus monkey, UniProt A0A2K5UBM6 29-244; A0A2K5WPB7 36-244); assay: cell-based or functional assay
T3 sequence (alpha): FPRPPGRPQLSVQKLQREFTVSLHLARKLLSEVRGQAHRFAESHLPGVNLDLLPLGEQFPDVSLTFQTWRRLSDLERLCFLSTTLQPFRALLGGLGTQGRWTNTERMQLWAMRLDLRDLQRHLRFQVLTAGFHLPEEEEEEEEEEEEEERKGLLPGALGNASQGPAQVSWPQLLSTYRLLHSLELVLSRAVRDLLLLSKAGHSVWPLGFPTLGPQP
T3 sequence (beta): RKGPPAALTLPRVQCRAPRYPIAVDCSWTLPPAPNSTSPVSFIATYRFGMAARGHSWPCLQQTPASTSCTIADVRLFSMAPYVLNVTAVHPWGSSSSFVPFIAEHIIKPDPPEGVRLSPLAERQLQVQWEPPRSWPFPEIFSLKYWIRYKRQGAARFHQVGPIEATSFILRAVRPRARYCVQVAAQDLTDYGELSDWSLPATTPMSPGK

recombinant mouse IL-27 = biological target: T4, recombinant mouse IL-27 (mouse, UniProt Q8K3I6 29-234; O35228 19-228); assay: cell-based or functional assay
T4 sequence (looked up) 1: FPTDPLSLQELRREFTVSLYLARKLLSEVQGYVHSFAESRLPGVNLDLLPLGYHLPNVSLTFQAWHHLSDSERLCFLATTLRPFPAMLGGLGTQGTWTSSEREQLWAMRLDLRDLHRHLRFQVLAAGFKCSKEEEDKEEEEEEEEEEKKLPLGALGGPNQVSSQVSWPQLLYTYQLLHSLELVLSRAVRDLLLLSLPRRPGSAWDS
T4 sequence (looked up) 2: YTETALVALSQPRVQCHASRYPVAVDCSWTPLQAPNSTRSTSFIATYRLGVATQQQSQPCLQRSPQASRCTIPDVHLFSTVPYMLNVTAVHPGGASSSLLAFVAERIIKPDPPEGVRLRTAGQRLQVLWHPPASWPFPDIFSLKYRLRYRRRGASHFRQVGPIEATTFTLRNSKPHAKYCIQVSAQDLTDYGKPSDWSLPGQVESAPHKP

[10] = biological target: B1; assay: cell-based or functional assay; remark: listed apart in the source
recombinant rat IL-27 = biological target: T5, recombinant rat IL-27 (rat, UniProt D3ZPW3 29-234; M0RD76 19-228); assay: cell-based or functional assay
T5 sequence (alpha): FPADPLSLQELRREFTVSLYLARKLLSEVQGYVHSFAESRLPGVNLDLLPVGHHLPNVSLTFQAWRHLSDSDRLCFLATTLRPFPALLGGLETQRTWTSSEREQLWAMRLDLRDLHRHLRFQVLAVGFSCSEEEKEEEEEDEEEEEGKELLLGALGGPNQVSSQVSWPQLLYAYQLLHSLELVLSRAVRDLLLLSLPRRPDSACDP
T5 sequence (beta): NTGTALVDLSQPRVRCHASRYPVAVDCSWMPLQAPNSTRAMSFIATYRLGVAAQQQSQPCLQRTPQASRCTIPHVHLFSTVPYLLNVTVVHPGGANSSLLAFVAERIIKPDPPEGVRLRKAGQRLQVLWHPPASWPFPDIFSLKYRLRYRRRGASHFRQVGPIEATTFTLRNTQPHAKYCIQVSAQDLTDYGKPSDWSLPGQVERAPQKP

Binder: B1
- Kd (gp130 [1]): 4.1 nM
- Kd (gp130 [2]): 34 nM
- Kd (IL-27RA (WSX-1) [3]): 0.0206 nM

Binder: B2
- Kd (gp130 [4]): ~1000 nM

- Kd (IL-27RA (WSX-1) [5]): 3.81 nM
- Kd (human IL-27p28 subunit [6]): 5.07 nM
- Kd (human IL-27p28 subunit [7]): 5 nM
B3: human EBI3 subunit (ligand)
chain: RKGPPAALTLPRVQCRASRYPIAVDCSWTLPPAPNSTSPVSFIATYRLGMAARGHSWPCLQQTPTSTSCTITDVQLFSMAPYVLNVTAVHPWGSSSSFVPFITEHIIKPDPPEGVRLSPLAERQLQVQWEPPGSWPFPEIFSLKYWIRYKRQGAARFHRVGPIEATSFILRAVRPRARYYVQVAAQDLTDYGELSDWSLPATATMSLGK

- IC50, inhibition of phosphorylation of STAT1 in HUT-78 cells (flow cytometry) [8]: 0.08 µg/mL
- IC50, inhibition of phosphorylation of STAT1 in U937 cells (flow cytometry) [8]: 0.081 µg/mL
- IC50, inhibition of phosphorylation of STAT1 in pooled human PBMCs (flow cytometry) [8]: 0.141 µg/mL
B4: anti-IL-27 Ab3 (antibody, V domains shown)
VH: EVQLVESGGGLVKPGGSLRLSCAASGFTFRSYGMNWVRQAPGKGLEWVSSISSSSSYIYYADSVKGRFTISRDNAKNSLYLQMNSLRAEDTAVYYCARDGGRTSYTATAHNWFDPWGQGTLVTVSS
VL: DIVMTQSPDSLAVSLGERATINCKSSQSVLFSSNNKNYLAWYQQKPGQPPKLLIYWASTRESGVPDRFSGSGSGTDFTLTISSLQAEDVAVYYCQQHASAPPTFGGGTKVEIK

- Average IC50, ng/mL; IL-27 pSTAT1 signaling inhibition in peripheral blood T cells, cynomolgus monkey [9]: 118 ng/mL
- Average IC50, ng/mL; IL-27 pSTAT1 signaling inhibition in peripheral blood T cells, mouse (recombinant mouse IL-27): 1720 ng/mL
- Average IC50, ng/mL; IL-27 pSTAT1 signaling inhibition in peripheral blood T cells, human [10]: 78.4 ng/mL
- Average IC50, ng/mL; IL-27 pSTAT1 signaling inhibition in peripheral blood T cells, rat (recombinant rat IL-27): 273 ng/mL
- IC50, inhibition of phosphorylation of STAT1 in HUT-78 cells (flow cytometry) [8]: 0.095 µg/mL
- IC50, inhibition of phosphorylation of STAT1 in U937 cells (flow cytometry) [8]: 0.096 µg/mL
- IC50, inhibition of phosphorylation of STAT1 in pooled human PBMCs (flow cytometry) [8]: 0.0583 µg/mL
B5: anti-IL-27 Ab1 (antibody, V domains shown)
VH: EVQLVESGGGLVKPGGSLRLSCAASGFTFRSYGMNWVRQAPGKGLEWVSGISSSGSYIYYADSVKGRFTISRDNAKNSLYLQMNSLRAEDTAVYYCARDGGRTSYTATAHNWFDPWGQGTLVTVSS
VL: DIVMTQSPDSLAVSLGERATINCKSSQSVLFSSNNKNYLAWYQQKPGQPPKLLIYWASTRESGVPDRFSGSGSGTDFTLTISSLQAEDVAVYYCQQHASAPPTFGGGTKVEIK
